Test results as given in PMC11573612 (Molecular Therapy, 2024).

Tests used:
[1] = target: T1, PD-L1 of the PD-1 [Biotinylated]: PD-L1 Inhibitor Screening ELISA Assay Pair (Acro Biosystems EP-101) (UniProt Q9NZQ7 19-238); test: ELISA; competition: PD-1 [Biotinylated]: PD-L1 Inhibitor Screening ELISA Assay Pair (Acro Biosystems EP-101) with recombinant VSTM2A as inhibitor; conditions: both partners purified
T1 construct: PD-L1 of a bought ELISA assay pair; The construct is described only by the kit's manufacturer; source: bought: Acro Biosystems (EP-101 assay pair)

[2] = target: T2, Recombinant human PD-L1 Fc chimera protein (R&D Systems 156-B7) (human, UniProt Q9NZQ7 19-238); test: ELISA; titration ELISA; 5 μg/mL PD-L1 Fc chimera immobilised on the plate at 4 °C for 12 h, blocked with 5% BSA; VSTM2A serial dilution (start 100 μg/mL) for 2 h at room temperature; fixed with DTSSP; pNPP, OD405; one-site specific binding fit; apparent KD; conditions: both partners purified
T2 construct: PD-L1, human, recombinant Fc chimera; also called recombinant human PD-L1 chimera protein; source: bought: R&D Systems (156-B7)
T2 sequence (Q9NZQ7 19-238, change not shown): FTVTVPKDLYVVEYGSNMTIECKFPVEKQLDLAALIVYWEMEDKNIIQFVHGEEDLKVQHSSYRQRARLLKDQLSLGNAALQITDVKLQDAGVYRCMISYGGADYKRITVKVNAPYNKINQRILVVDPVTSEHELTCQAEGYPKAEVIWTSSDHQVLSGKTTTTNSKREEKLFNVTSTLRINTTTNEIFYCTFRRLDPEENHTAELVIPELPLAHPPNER

T1 sequence (Q9NZQ7 19-238): as the sequence (Q9NZQ7 19-238, change not shown) above

IC50 [1]: 4.51 nM | Kd [2]: 0.7 to 2.5 nM
B1: Recombinant human VSTM2A His-tag protein (R&D Systems 10037-VT-050, carrier-free) (ligand, UniProt Q8TAG5 25-236, looked up)
chain: SQAKFTEFPRNVTATEGQNVEMSCAFQSGSASVYLEIQWWFLRGPEDLDPGAEGAGAQVELLPDRDPDSDGTKISTVKVQGNDISHKLQISKVRKKDEGLYECRVTDANYGELQEHKAQAYLKVNANSHARRMQAFEASPMWLQDMKPRKNVSAAIPSSIHGSANQRTHSTSSPQVVAKIPKQSPQSGARIATSHGLSVLLLVCGFVKGALL
notes: VSTM2A, human, recombinant; also called recombinant VSTM2A; VSTM2A recombinant protein; source: bought: R&D Systems (10037-VT-050, carrier-free version)
